How the values were obtained:
Format in all cases: cell-based
Gal4/Myc = assay: Gal4-TK-luciferase transactivation analysis, Gal4/Myc; settings: IPTG-induced stable expression in Swiss 3T3 cells
Description: Swiss 3T3 cells were transfected using calcium phosphate or lipofectamine with the reporter plasmid Gal4-TK-luciferase, which contains four Gal4 binding sites (Sadowski, I., et al. (1988). Nature 335, 563-564). adjacent to a minimal thymidine kinase (TK) promoter that controls expression of luciferase, in the presence or absence of activator plasmids encoding Gal4(1-147)/Myc(7-101) (Gupta et al. (1993) Proc. Natl. Acad. Sci. USA 90:3216-3220), Gal4(1-47)/Elk-1(83-428) (Marais, et al. (1993) Cell 73:381-393) or Gal4(1-147)/c-Jun(1-233) Hibi et al. (1993) Genes & Development 7:2135-2148). Transfections included pCMV5 without a cDNA insert (basal control), pCMV5MEKKCOOH and in some experiments pCMV5BxBRaf. Cells were incubated for 24-48 hr after transfection, lysed and assayed for luciferase activity. Values were normalized to equivalent μg protein for all experiments.

ERK = ERK activity in Swiss 3T3 clones with inducible MEKKCOOH; settings: 17 hours IPTG induction
JNK/SAPK = JNK/SAPK activity in Swiss 3T3 clones with inducible MEKKCOOH; settings: 17 hours IPTG induction
Method: JNK/SAPK: Activity was measured using GST (glutathione S-transferase)—c-Jun (1-79) BOUND to glutathione-Sepharose-4B (Hibi et al. supra). Cells expressing MEKKCOOH or control cells were lysed in 0.5% Nonidet P40 (NP40), 20 mM Tris-HCl, pH 7.6, 0.25 NaCl, 3 mM EDTA, 3 mM EGTA, 1 mM dithiothreitol, 1 mM phenylmethylsulfonyl fluoride, 2 mM sodium vanadate, 20 μg/ml aprotinin and 5 μg/ml leupeptin. Lysates were centrifuged at 15,000×g for 10 min to remove nuclei and supernatants (25 μg protein) mixed with 10 μl of GST-c-JUN(1-79)-Sepharose (3-5 μg of GST-c-Jun(1-79)). The mixture was rotated at 4° C. for 1 hr, washed 2× in lysis buffer and 1× in kinase buffer (20 mM Hepes, pH 7.5, 10 mM MgCl2, 20 mM β-glycerophosphate, 10 mM p-nitrophenyl phosphate, 1 mM dithiothreitol, 50 μM sodium vanadate). Beads were suspended in 40 μl of kinase buffer with 10 μCi Of [γ^32P] ATP and incubated at 30° C. for 20 min. Samples were boiled in Laemmli buffer and phosphorylated proteins resolved on SDS/10% polyacrylamide gels. To verify the selectivity of the JNK/SAPK assay cell lysates were fractionated by Mono Q ion exchange chromatography and each fraction assayed as described above. Fractions were also immunoblotted with a rabbit antisera recognizing JNK/SAPK. […]

- transactivation function of c-Myc (Gal4/Myc): markedly activated
B1: MEKKCOOH: a truncated activated form of MEKK1 including the entire kinase domain (protein)
chain: MAMSASQDALPIVPQLQVENGEDIIIIQQDTPETLPGHTKAKQPYREDAEWLKGQQIGLGAFSSCYQAQDVGTGTLMAVKQVTYVRNTSSEQEEVVEALREEIRMMGHLNHPNIIRMLGATCEKSNYNLFIEWMAGGSVAHLLSKYGAFKESVVINYTEQLLRGLSYLHENQIIHRDVKGANLLIDSTGQRLRIADFGAAARLASKGTGAGEFQGQLLGTIAFMAPEVLRGQQYGRSCDVWSVGCAIIEMACAKPPWNAEKHSNHLALIFKIASATTAPSIPSHLSPGLRDVAVRCLELQPQDRPPSRELLKHPVFRTTW
- ERK activity (ERK): did not activate either ERK or p38/Hog1 activity
- JNK/SAPK activity (JNK/SAPK): stimulated JNK/SAPK activity

— US20080201790A1, “Method and product for regulating cell responsiveness to external signals” (priority 1993, published 2008)
